How the values were obtained:
Lupus La protein (La) [1] = molecular target: T1, Lupus La protein (La) (Homo sapiens, UniProt P05455 1-408); assay: EMSA; EMSA: 1 nM RNA, La 250 pM-2 uM; 25 mM Tris pH 8, 100 mM KCl, 1.5 mM MgCl2, 0.2 mM EGTA, 0.05% NP-40, 50 ug/ml heparin; 30 C 30 min, then ice 10 min; 6% gel at 4 C; Hill fit; settings: protein: recombinant; tags: N-terminal 6xHis; label: 5' IRDye800CW
T1 sequence: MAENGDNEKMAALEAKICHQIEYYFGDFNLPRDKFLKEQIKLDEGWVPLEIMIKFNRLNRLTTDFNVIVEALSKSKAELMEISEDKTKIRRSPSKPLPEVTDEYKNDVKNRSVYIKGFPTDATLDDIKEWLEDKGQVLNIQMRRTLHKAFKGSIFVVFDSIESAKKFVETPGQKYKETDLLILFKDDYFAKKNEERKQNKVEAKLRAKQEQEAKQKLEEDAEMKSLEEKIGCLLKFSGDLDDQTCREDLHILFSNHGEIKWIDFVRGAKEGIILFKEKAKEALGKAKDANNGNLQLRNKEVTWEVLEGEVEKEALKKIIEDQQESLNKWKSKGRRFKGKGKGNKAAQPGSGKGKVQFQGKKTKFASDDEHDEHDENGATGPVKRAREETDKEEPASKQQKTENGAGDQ

Lupus La protein (La) [2] = molecular target: T1, Lupus La protein (La); assay: as above; settings: protein: recombinant; tags: N-terminal 6xHis; label: 5' IRDye800CW; remark: listed apart in the source

B1: miR-122-5p WT (ssRNA)
RNA: UGGAGUGUGACAAUGGUGUUUG
Kd (Lupus La protein (La) [1]): 4.8 nM

B2: miR-122 5'mut (ssRNA)
RNA: ACACGUGUGACAAUGGUGUUUG
binding signal (Lupus La protein (La) [2]): ~10 fold lower affinity than WT

B3: miR-122 3'mut (ssRNA)
RNA: UGGAGUGUGACAAUGGUGAAAG
Kd (Lupus La protein (La) [1]): 538 nM
